Measurements as given in IntAct's records for PubMed 21239581.

B1: Chromosomal replication initiator protein DnaA (Bacillus subtilis), P05648 (parent)
chain: MENILDLWNQALAQIEKKLSKPSFETWMKSTKAHSLQGDTLTITAPNEFARDWLESRYLHLIADTIYELTGEELSIKFVIPQNQDVEDFMPKPQVKKAVKEDTSDFPQNMLNPKYTFDTFVIGSGNRFAHAASLAVAEAPAKAYNPLFIYGGVGLGKTHLMHAIGHYVIDHNPSAKVVYLSSEKFTNEFINSIRDNKAVDFRNRYRNVDVLLIDDIQFLAGKEQTQEEFFHTFNTLHEESKQIVISSDRPPKEIPTLEDRLRSRFEWGLITDITPPDLETRIAILRKKAKAEGLDIPNEVMLYIANQIDSNIRELEGALIRVVAYSSLINKDINADLAAEALKDIIPSSKPKVITIKEIQRVVGQQFNIKLEDFKAKKRTKSVAFPRQIAMYLSREMTDSSLPKIGEEFGGRDHTTVIHAHEKISKLLADDEQLQQHVKEIKEQLK
partner: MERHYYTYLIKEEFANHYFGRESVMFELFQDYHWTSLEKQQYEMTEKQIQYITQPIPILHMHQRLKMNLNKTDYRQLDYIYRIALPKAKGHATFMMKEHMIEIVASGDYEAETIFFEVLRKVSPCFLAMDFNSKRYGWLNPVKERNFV

Variants of: B1
Conditions: with sira_bacsu sirA

Variant | effect of a mutation on the interaction
MENILDLWNQALAQIEKKLSKPSFETWMKSTKAHSLQGDTLTITAPNEYARDWLESRYLHLIADTIYELTGEELSIKFVIPQNQDVEDFMPKPQVKKAVKEDTSDFPQNMLNPKYTFDTFVIGSGNRFAHAASLAVAEAPAKAYNPLFIYGGVGLGKTHLMHAIGHYVIDHNPSAKVVYLSSEKFTNEFINSIRDNKAVDFRNRYRNVDVLLIDDIQFLAGKEQTQEEFFHTFNTLHEESKQIVISSDRPPKEIPTLEDRLRSRFEWGLITDITPPDLETRIAILRKKAKAEGLDIPNEVMLYIANQIDSNIRELEGALIRVVAYSSLINKDINADLAAEALKDIIPSSKPKVITIKEIQRVVGQQFNIKLEDFKAKKRTKSVAFPRQIAMYLSREMTDSSLPKIGEEFGGRDHTTVIHAHEKISKLLADDEQLQQHVKEIKEQLK [F49Y] | disrupting interaction
MENILDLWNQALAQIEKKLSKPSFETWMKSTKAHSLQGDTLTITAPNEFTRDWLESRYLHLIADTIYELTGEELSIKFVIPQNQDVEDFMPKPQVKKAVKEDTSDFPQNMLNPKYTFDTFVIGSGNRFAHAASLAVAEAPAKAYNPLFIYGGVGLGKTHLMHAIGHYVIDHNPSAKVVYLSSEKFTNEFINSIRDNKAVDFRNRYRNVDVLLIDDIQFLAGKEQTQEEFFHTFNTLHEESKQIVISSDRPPKEIPTLEDRLRSRFEWGLITDITPPDLETRIAILRKKAKAEGLDIPNEVMLYIANQIDSNIRELEGALIRVVAYSSLINKDINADLAAEALKDIIPSSKPKVITIKEIQRVVGQQFNIKLEDFKAKKRTKSVAFPRQIAMYLSREMTDSSLPKIGEEFGGRDHTTVIHAHEKISKLLADDEQLQQHVKEIKEQLK [A50T] | disrupting interaction
MENILDLWNQALAQIEKKLSKPSFETWMKSTKAHSLQGDTLTITAPDEFARDWLESRYLHLIADTIYELTGEELSIKFVIPQNQDVEDFMPKPQVKKAVKEDTSDFPQNMLNPKYTFDTFVIGSGNRFAHAASLAVAEAPAKAYNPLFIYGGVGLGKTHLMHAIGHYVIDHNPSAKVVYLSSEKFTNEFINSIRDNKAVDFRNRYRNVDVLLIDDIQFLAGKEQTQEEFFHTFNTLHEESKQIVISSDRPPKEIPTLEDRLRSRFEWGLITDITPPDLETRIAILRKKAKAEGLDIPNEVMLYIANQIDSNIRELEGALIRVVAYSSLINKDINADLAAEALKDIIPSSKPKVITIKEIQRVVGQQFNIKLEDFKAKKRTKSVAFPRQIAMYLSREMTDSSLPKIGEEFGGRDHTTVIHAHEKISKLLADDEQLQQHVKEIKEQLK [N47D] | disrupting interaction
